assay: yeast display, Sf9 membrane polyspecificity reagent, FACS + sequencing; frameworks hold sequencing errors
Outline: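 Using colony PCR, genes from sorted yeast display clones were amplified, then sequenced on MiSeq at 2 × 250 and filtered by CDR length. The clones had been stained with 10% biotinylated, detergent-solubilized Sf9 membrane reagent for 1 hour at 4 °C and sorted by FACS into low and high (top ~1%) gates on anti-HA and streptavidin fluorescence. Polyreactivity labels come from the gate of origin.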

Sequence | polyreactivity (PSR sort gate)
QVQLVESGGGLVQAGGSLRLSCAASGRIFKWNAMGWYRQAPGKERELVAAITYRDDTTYYADSVKGRFTISRDNAKNTVYLQMNSLKPEDTAVYYCNAAWRPCRPFRGFTEGEYDYWGQGTQVTVSS | low polyreactivity
QVQLVESGGGLVQAGGSLRLSCAASGRIFKWYAMGWYRQAPGKERELVAAITSGGGSTYYADSVKGRFTISRDNAKNTVYLQMNSLKPEDTAVYYCAVKGYRRWGYDYWGQGTQVTVSS | high polyreactivity
QVQLVESGGGLVQAGGSLRLSCAASGRIFKYNAMGWYRQAPGKERELLAAITRGGSTNYADSVKGRFTISRDNAKNTVYLQMNSLKPEDTAVYYCAALRSRYGRDMDYWGQGTQVTVSS | high polyreactivity
QVQLVESGGGLVQAGGSLRLSCAASGRIFKYYAMGGYRQAPGKERELVAAISGSGGSTFYADSVKGRFTISRDNAKNTVYLQMNSLKPEDSALYYCNADEVVWGYNYWGQVTQVTVSS | low polyreactivity
QVQLVESGGGLVQAGGSLRLSCAASGRIFKYYAMGWSRQAPGKERELVPAINRDGGRTYYADSVKGRFTISRDNAKNTVYLQMNSLTPEETAVYYCAASYGYVYTTSLDYWGQGTQVTVSS | low polyreactivity
QVQLVESGGGLVQAGGSLRLSCAASGRIFLFYAMGWYRTAPGKERELVAGIRSGGSTNYADSVKGRFTISRDNAKNTVYLQMNSLKQEDTAVYYSAAASYFVYPRLEGYWGQGTQVTVSS | low polyreactivity
QVQLVESGGGLVQAGGSLRLSCAASGRIFLGNALGWYRQPPGNERELVAAITYSGRSTYYADSVKGRFTISRDHAKNTVYLQMNSLKPEDTAVYFCAARQYWTTDLPFQRYYYWGQGTQVTVSS | low polyreactivity
QVQLVESGGGLVQAGGSLRLSCAASGRIFLGNAMGWYRQAPGKERDLVAAITNGGGSTYYADSVKGRFTISRDNAKNTVYLQMNSLKPEDTAVYYCARGYKKSVQRFEYWGQGTQVTVSS | high polyreactivity
QVQLVESGGGLVQAGGSLRLSCAASGRIFLGYAMGWYRQAPGKERELVAAISAGGGSTYYADSVKGRFTISRDTAKNTVYLLMNSLKPEDTAVYYCAARRPHIPVKTYDYWGQGTQVTVSS | high polyreactivity
QVQLVESGGGLVQAGGSLRLSCAASGRIFLGYTMGWYIQAPGKERELVAAISYTGGSTYYADSVKGRFTISRDNAKNSVYLQMNSLKPEDTAVYYCAAGTRFSYYWGQGTQLTVSS | high polyreactivity
QVQLVESGGGLVQAGGSLRLSCAASGRIFLINAMGWYRQAPGKERELVAAITGGGGSTYYADSVKGRFTISRDNAKNTVYLQMNSLKPEDTAVYYCAARGTAERDYWGQGTQVTVSS | high polyreactivity
QVQLVESGGGLVQAGGSLRLSCAASGRIFLKYAMGWYRQAPGKERELVAAISSSGGSTYYADSVKGRFTISRDNAMNTVYLQMNSLKPEDTAVYYCNALYKRGSSYFIGDGYWGQGTQVTVSS | high polyreactivity
QVQLVESGGGLVQAGGSLRLSCAASGRIFLRNAMGWYRQAPGNERELVATITSRGGSTYYADSVKGRFTISRDNAKNTVYLQMNSLKPEDTAVYYSAADPSRYRSFGYVYGGYYYWGQGTQVTVSS | low polyreactivity
QVQLVESGGGLVQAGGSLRLSCAASGRIFLRNAMGWYRQEPGKERELVASIDRSGGSTYYADSVKGRFTISRDNAKNTVFLQMNSLKPEDTAVYYCAAAYWYLYYYWGQGTQVTVSS | low polyreactivity
QVQLVESGGGLVQAGGSLRLSCAASGRIFLSNAMGWYRQAPGKERELVASITSGGSTNYADSVKGRFTISRDNAKNTVYLQMNSLKPEDTAVYYCAKRYRHSGYFVGFNYWGQGTQVTVSS | high polyreactivity
QVQLVESGGGLVQAGGSLRLSCAASGRIFLSYTMGSYRQAPGKERELVAAISRGGRTYYADSVKGRFTISLDNAKNTVYLQMNSLKPEDTAVYYCAKKYGRYGSLRGRTIDDYWGQGTEVTVSS | low polyreactivity

Sequence | polyreactivity (PSR sort gate)
QVQLVESGGGLVQAGGSLRLSCAASGRIFLTNAMGWYRQAPGKERELVADITSGGATYYADSVKGRFTISRDNAKNSVYLQMNSLKPVDTAVYYCNADTDRYWPYEYDYWGQGSQVTVSS | low polyreactivity
QVQLVESGGGLVQAGGSLRLSCAASGRIFLVNAMGWYRQAPGKERELVAAINFISGSTYYADSVKGRFTISRDNAKNTVYLQMNSLKPEDTAVYYCAAYSYWSYVQRYKLEYDYWGQGTQVTVSS | low polyreactivity
QVQLVESGGGLVQAGGSLRLSCAASGRIFLWYAMGWYRQAPGKERELVAAISRTGGSTYYADSVKGRFTISRDNAKNTVYLQMNSLKPEDTAVYFCAAYHSYKTSWPQSGYWGQGTQVTVSS | high polyreactivity
QVQLVESGGGLVQAGGSLRLSCAASGRIFLWYAMGWYRQAPGKERELVAAISSGGSTIYADSVKGRFTISRDNAKNTVYLQMNSLKPEDTAVNYCAAFPTQRRHPLVGFNSWGQGTQVTVSS | high polyreactivity
QVQLVESGGGLVQAGGSLRLSCAASGRIFLWYAMGWYRQAPGKERELVAAISSNGGSTRYADSVKGRFTFSRDNAKNTVYLQMNSLKPEDTAVYYCNADVHWNRYPYGGNGYGYWGQGTQVTVSS | low polyreactivity
QVQLVESGGGLVQAGGSLRLSCAASGRIFLWYAMGWYRQAPGKERELVAGISSGASTYYADSVKGRFTISRDNAKNTVYLQMNSLKPEDTAVYYCAAPYYRLTGWSRYDYWGQGTQVTVSS | high polyreactivity
QVQLVESGGGLVQAGGSLRLSCAASGRIFLYYAMGWYRQAPGKERELVAAISFRGGSTYYADSVKGRFTISRDNAKNTVYLQMNSLKPEDTAVYYCNAVRDWGPSQVYDGMDYWGQGTQVTVSS | low polyreactivity
QVQLVESGGGLVQAGGSLRLSCAASGRIFLYYAMGWYRQAPGKERELVAAISSGGSTYYADSVKGRFTISRDNAKNTVYLQMNSLKPEDTAVYYCATPSGRWGHYGYWGQGTQVTVSS | low polyreactivity
QVQLVESGGGLVQAGGSLRLSCAASGRIFLYYAMGWYRQAPGKERELVAAITSSGGDTYYADSVKGRFTISRDNANNTVYLQMYSLKPEDTAVYYCAAYSWWNEYDYWGQGTQVTVSS | high polyreactivity
QVQLVESGGGLVQAGGSLRLSCAASGRIFLYYAMGWYRQAPGKERELVAAITSSGGGTYYADSVKGRFTISRDNAKNTVYLQMNSLKPEDTAVYYCAARRRSQWRYYYWGQGTQVTVSS | high polyreactivity
QVQLVESGGGLVQAGGSLRLSCAASGRIFLYYTMGWYRQATWKERELVAAITRSGGSTYYADSVKGRFTISRDNAKNTVYLQMNSLKPEDTAVYYCNRAYVRYVPMNYWGQGTQVTVSS | high polyreactivity
QVQLVESGGGLVQAGGSLRLSCAASGRIFNAYAMGWYRQAPGKERELVASISWSGGSTFYADSVKGRFTISRDNAKNTVYLQMNSLKPEDTAVYYCNADRRSSRHWWSITAYEYWGQGTQVTVSS | high polyreactivity
QVQLVESGGGLVQAGGSLRLSCAASGRIFNDYAMGWSRQAPGKERELVAVIRRSGVSTYYADSVKGRFTISRDNAKNTVYLQMNSLKPEDTAVYYCAAYGYWGQGTQVTVSS | low polyreactivity
QVQLVESGGGLVQAGGSLRLSCAASGRIFNGNAMGWYRQAPGNERELVAAISGSGGSTYYADSVKGRFTISRDNAKNTVYLQMNSLKPEDTAVYYCATKRVVHYNYWGQGTQVTVSS | high polyreactivity
QVQLVESGGGLVQAGGSLRLSCAASGRIFNGYAMGWYRQAPGKERELVAAINSSGGSTYYADSVKGRFTISRDNAKNTVFLQMNSLKPEDTAVYYCARVSYHYRTYDYWGQGTQVTVSS | high polyreactivity
QVQLVESGGGLVQAGGSLRLSCAASGRIFNGYAMGWYRQAPGKERELVAAISVSGGSTYYADSVKGRFTISRDNAKNTVYLQMNSLKPEDTAVYYCAARTSSYSFPYAYNYWGQGTQVTVSS | high polyreactivity
